Laboratory results as given in US20110118131A1 (published 2011).

B1: XPA23 heavy chain F33G (Fab, V domains shown)
VH: EVQLLESGGGLVQPGGSLRLSCAASGFTFSKYGMFWVRQAPGKGLEWVSVISPSGGMTRYADSVKGRFTISRDNSKNTLYLQMNSLRAEDTAVYYCARVGYGGNSDYWGQGTLVTVSS
VL: DIQMTQSPSSVSASVGDRLTIICRASQDINRWLAWYQQTPGNAPKLLIHSATSLQSGVPSRFSGSGSGTDFTLTINSLQPEDFATYYCQQADSFPLTFGGGTKVEIK
notes: Fab, periplasmic extract; also called C5A F33G
B2: XPA23 heavy chain F33I (Fab, V domains shown)
VH: EVQLLESGGGLVQPGGSLRLSCAASGFTFSKYIMFWVRQAPGKGLEWVSVISPSGGMTRYADSVKGRFTISRDNSKNTLYLQMNSLRAEDTAVYYCARVGYGGNSDYWGQGTLVTVSS
VL: DIQMTQSPSSVSASVGDRLTIICRASQDINRWLAWYQQTPGNAPKLLIHSATSLQSGVPSRFSGSGSGTDFTLTINSLQPEDFATYYCQQADSFPLTFGGGTKVEIK
notes: Fab, periplasmic extract; also called C5A F33I
B3: XPA23 heavy chain F33L (Fab, V domains shown)
VH: EVQLLESGGGLVQPGGSLRLSCAASGFTFSKYLMFWVRQAPGKGLEWVSVISPSGGMTRYADSVKGRFTISRDNSKNTLYLQMNSLRAEDTAVYYCARVGYGGNSDYWGQGTLVTVSS
VL: DIQMTQSPSSVSASVGDRLTIICRASQDINRWLAWYQQTPGNAPKLLIHSATSLQSGVPSRFSGSGSGTDFTLTINSLQPEDFATYYCQQADSFPLTFGGGTKVEIK
notes: Fab, periplasmic extract; also called C5A F33L
B4: XPA23 heavy chain F33P (Fab, V domains shown)
VH: EVQLLESGGGLVQPGGSLRLSCAASGFTFSKYPMFWVRQAPGKGLEWVSVISPSGGMTRYADSVKGRFTISRDNSKNTLYLQMNSLRAEDTAVYYCARVGYGGNSDYWGQGTLVTVSS
VL: DIQMTQSPSSVSASVGDRLTIICRASQDINRWLAWYQQTPGNAPKLLIHSATSLQSGVPSRFSGSGSGTDFTLTINSLQPEDFATYYCQQADSFPLTFGGGTKVEIK
notes: Fab, periplasmic extract; also called C5A F33P
B5: XPA23 heavy chain F33T (Fab, V domains shown)
VH: EVQLLESGGGLVQPGGSLRLSCAASGFTFSKYTMFWVRQAPGKGLEWVSVISPSGGMTRYADSVKGRFTISRDNSKNTLYLQMNSLRAEDTAVYYCARVGYGGNSDYWGQGTLVTVSS
VL: DIQMTQSPSSVSASVGDRLTIICRASQDINRWLAWYQQTPGNAPKLLIHSATSLQSGVPSRFSGSGSGTDFTLTINSLQPEDFATYYCQQADSFPLTFGGGTKVEIK
notes: Fab, periplasmic extract; also called C5A F33T
B6: XPA23 heavy chain F33V (Fab, V domains shown)
VH: EVQLLESGGGLVQPGGSLRLSCAASGFTFSKYVMFWVRQAPGKGLEWVSVISPSGGMTRYADSVKGRFTISRDNSKNTLYLQMNSLRAEDTAVYYCARVGYGGNSDYWGQGTLVTVSS
VL: DIQMTQSPSSVSASVGDRLTIICRASQDINRWLAWYQQTPGNAPKLLIHSATSLQSGVPSRFSGSGSGTDFTLTINSLQPEDFATYYCQQADSFPLTFGGGTKVEIK
notes: Fab, periplasmic extract; also called C5A F33V
B7: XPA23 heavy chain F35A (Fab, V domains shown)
VH: EVQLLESGGGLVQPGGSLRLSCAASGFTFSKYFMAWVRQAPGKGLEWVSVISPSGGMTRYADSVKGRFTISRDNSKNTLYLQMNSLRAEDTAVYYCARVGYGGNSDYWGQGTLVTVSS
VL: DIQMTQSPSSVSASVGDRLTIICRASQDINRWLAWYQQTPGNAPKLLIHSATSLQSGVPSRFSGSGSGTDFTLTINSLQPEDFATYYCQQADSFPLTFGGGTKVEIK
notes: Fab, periplasmic extract; also called C5A F35A
B8: XPA23 heavy chain F35G (Fab, V domains shown)
VH: EVQLLESGGGLVQPGGSLRLSCAASGFTFSKYFMGWVRQAPGKGLEWVSVISPSGGMTRYADSVKGRFTISRDNSKNTLYLQMNSLRAEDTAVYYCARVGYGGNSDYWGQGTLVTVSS
VL: DIQMTQSPSSVSASVGDRLTIICRASQDINRWLAWYQQTPGNAPKLLIHSATSLQSGVPSRFSGSGSGTDFTLTINSLQPEDFATYYCQQADSFPLTFGGGTKVEIK
notes: Fab, periplasmic extract; also called C5A F35G
B9: XPA23 heavy chain F35I (Fab, V domains shown)
VH: EVQLLESGGGLVQPGGSLRLSCAASGFTFSKYFMIWVRQAPGKGLEWVSVISPSGGMTRYADSVKGRFTISRDNSKNTLYLQMNSLRAEDTAVYYCARVGYGGNSDYWGQGTLVTVSS
VL: DIQMTQSPSSVSASVGDRLTIICRASQDINRWLAWYQQTPGNAPKLLIHSATSLQSGVPSRFSGSGSGTDFTLTINSLQPEDFATYYCQQADSFPLTFGGGTKVEIK
notes: Fab, periplasmic extract; also called C5A F35I
B10: XPA23 heavy chain F35L (Fab, V domains shown)
VH: EVQLLESGGGLVQPGGSLRLSCAASGFTFSKYFMLWVRQAPGKGLEWVSVISPSGGMTRYADSVKGRFTISRDNSKNTLYLQMNSLRAEDTAVYYCARVGYGGNSDYWGQGTLVTVSS
VL: DIQMTQSPSSVSASVGDRLTIICRASQDINRWLAWYQQTPGNAPKLLIHSATSLQSGVPSRFSGSGSGTDFTLTINSLQPEDFATYYCQQADSFPLTFGGGTKVEIK
notes: Fab, periplasmic extract; also called C5A F35L
B11: XPA23 heavy chain F35P (Fab, V domains shown)
VH: EVQLLESGGGLVQPGGSLRLSCAASGFTFSKYFMPWVRQAPGKGLEWVSVISPSGGMTRYADSVKGRFTISRDNSKNTLYLQMNSLRAEDTAVYYCARVGYGGNSDYWGQGTLVTVSS
VL: DIQMTQSPSSVSASVGDRLTIICRASQDINRWLAWYQQTPGNAPKLLIHSATSLQSGVPSRFSGSGSGTDFTLTINSLQPEDFATYYCQQADSFPLTFGGGTKVEIK
notes: Fab, periplasmic extract; also called C5A F35P
B12: XPA23 heavy chain F35T (Fab, V domains shown)
VH: EVQLLESGGGLVQPGGSLRLSCAASGFTFSKYFMTWVRQAPGKGLEWVSVISPSGGMTRYADSVKGRFTISRDNSKNTLYLQMNSLRAEDTAVYYCARVGYGGNSDYWGQGTLVTVSS
VL: DIQMTQSPSSVSASVGDRLTIICRASQDINRWLAWYQQTPGNAPKLLIHSATSLQSGVPSRFSGSGSGTDFTLTINSLQPEDFATYYCQQADSFPLTFGGGTKVEIK
notes: Fab, periplasmic extract; also called C5A F35T
B13: XPA23 heavy chain F35V (Fab, V domains shown)
VH: EVQLLESGGGLVQPGGSLRLSCAASGFTFSKYFMVWVRQAPGKGLEWVSVISPSGGMTRYADSVKGRFTISRDNSKNTLYLQMNSLRAEDTAVYYCARVGYGGNSDYWGQGTLVTVSS
VL: DIQMTQSPSSVSASVGDRLTIICRASQDINRWLAWYQQTPGNAPKLLIHSATSLQSGVPSRFSGSGSGTDFTLTINSLQPEDFATYYCQQADSFPLTFGGGTKVEIK
notes: Fab, periplasmic extract; also called C5A F35V
B14: XPA23 heavy chain G55I (Fab, V domains shown)
VH: EVQLLESGGGLVQPGGSLRLSCAASGFTFSKYFMFWVRQAPGKGLEWVSVISPSIGMTRYADSVKGRFTISRDNSKNTLYLQMNSLRAEDTAVYYCARVGYGGNSDYWGQGTLVTVSS
VL: DIQMTQSPSSVSASVGDRLTIICRASQDINRWLAWYQQTPGNAPKLLIHSATSLQSGVPSRFSGSGSGTDFTLTINSLQPEDFATYYCQQADSFPLTFGGGTKVEIK
notes: Fab, periplasmic extract; also called C5A G55I
B15: XPA23 heavy chain G55L (Fab, V domains shown)
VH: EVQLLESGGGLVQPGGSLRLSCAASGFTFSKYFMFWVRQAPGKGLEWVSVISPSLGMTRYADSVKGRFTISRDNSKNTLYLQMNSLRAEDTAVYYCARVGYGGNSDYWGQGTLVTVSS
VL: DIQMTQSPSSVSASVGDRLTIICRASQDINRWLAWYQQTPGNAPKLLIHSATSLQSGVPSRFSGSGSGTDFTLTINSLQPEDFATYYCQQADSFPLTFGGGTKVEIK
notes: Fab, periplasmic extract; also called C5A G55L
B16: XPA23 heavy chain G56A (Fab, V domains shown)
VH: EVQLLESGGGLVQPGGSLRLSCAASGFTFSKYFMFWVRQAPGKGLEWVSVISPSGAMTRYADSVKGRFTISRDNSKNTLYLQMNSLRAEDTAVYYCARVGYGGNSDYWGQGTLVTVSS
VL: DIQMTQSPSSVSASVGDRLTIICRASQDINRWLAWYQQTPGNAPKLLIHSATSLQSGVPSRFSGSGSGTDFTLTINSLQPEDFATYYCQQADSFPLTFGGGTKVEIK
notes: Fab, periplasmic extract; also called C5A G56A
B17: XPA23 heavy chain G56I (Fab, V domains shown)
VH: EVQLLESGGGLVQPGGSLRLSCAASGFTFSKYFMFWVRQAPGKGLEWVSVISPSGIMTRYADSVKGRFTISRDNSKNTLYLQMNSLRAEDTAVYYCARVGYGGNSDYWGQGTLVTVSS
VL: DIQMTQSPSSVSASVGDRLTIICRASQDINRWLAWYQQTPGNAPKLLIHSATSLQSGVPSRFSGSGSGTDFTLTINSLQPEDFATYYCQQADSFPLTFGGGTKVEIK
notes: Fab, periplasmic extract; also called C5A G56I
B18: XPA23 heavy chain G56L (Fab, V domains shown)
VH: EVQLLESGGGLVQPGGSLRLSCAASGFTFSKYFMFWVRQAPGKGLEWVSVISPSGLMTRYADSVKGRFTISRDNSKNTLYLQMNSLRAEDTAVYYCARVGYGGNSDYWGQGTLVTVSS
VL: DIQMTQSPSSVSASVGDRLTIICRASQDINRWLAWYQQTPGNAPKLLIHSATSLQSGVPSRFSGSGSGTDFTLTINSLQPEDFATYYCQQADSFPLTFGGGTKVEIK
notes: Fab, periplasmic extract; also called C5A G56L
B19: XPA23 heavy chain G56P (Fab, V domains shown)
VH: EVQLLESGGGLVQPGGSLRLSCAASGFTFSKYFMFWVRQAPGKGLEWVSVISPSGPMTRYADSVKGRFTISRDNSKNTLYLQMNSLRAEDTAVYYCARVGYGGNSDYWGQGTLVTVSS
VL: DIQMTQSPSSVSASVGDRLTIICRASQDINRWLAWYQQTPGNAPKLLIHSATSLQSGVPSRFSGSGSGTDFTLTINSLQPEDFATYYCQQADSFPLTFGGGTKVEIK
notes: Fab, periplasmic extract; also called C5A G56P
B20: XPA23 heavy chain G56T (Fab, V domains shown)
VH: EVQLLESGGGLVQPGGSLRLSCAASGFTFSKYFMFWVRQAPGKGLEWVSVISPSGTMTRYADSVKGRFTISRDNSKNTLYLQMNSLRAEDTAVYYCARVGYGGNSDYWGQGTLVTVSS
VL: DIQMTQSPSSVSASVGDRLTIICRASQDINRWLAWYQQTPGNAPKLLIHSATSLQSGVPSRFSGSGSGTDFTLTINSLQPEDFATYYCQQADSFPLTFGGGTKVEIK
notes: Fab, periplasmic extract; also called C5A G56T
B21: XPA23 heavy chain G100T (Fab, V domains shown)
VH: EVQLLESGGGLVQPGGSLRLSCAASGFTFSKYFMFWVRQAPGKGLEWVSVISPSGGMTRYADSVKGRFTISRDNSKNTLYLQMNSLRAEDTAVYYCARVTYGGNSDYWGQGTLVTVSS
VL: DIQMTQSPSSVSASVGDRLTIICRASQDINRWLAWYQQTPGNAPKLLIHSATSLQSGVPSRFSGSGSGTDFTLTINSLQPEDFATYYCQQADSFPLTFGGGTKVEIK
notes: Fab, periplasmic extract; also called C5A G100T

Target: T1, IL-1β (UniProt P01584 117-269)
T1 construct: Antigen of XPA23
Experiment: Biacore, Fab periplasmic extract

Row | Binder | fold difference in affinity against the original
1 | B1 | 0.76 fold
2 | B2 | 0.75 fold
3 | B3 | 0.88 fold
4 | B4 | 0.91 fold
5 | B5 | 0.78 fold
6 | B6 | 0.76 fold
7 | B7 | 0.07 fold
8 | B8 | 0.04 fold
9 | B9 | 0.85 fold
10 | B10 | 0.78 fold
11 | B11 | 0.06 fold
12 | B12 | 0.74 fold
13 | B13 | 0.89 fold
14 | B14 | 0.86 fold
15 | B15 | 0.08 fold
16 | B16 | 1.21 fold
17 | B17 | 1.71 fold
18 | B18 | 1.41 fold
19 | B19 | 0.85 fold
20 | B20 | 1.11 fold
21 | B21 | 0.12 fold
